# Test results published in the supplement of paper PMC9112550, “Optimization of the antimicrobial peptide Bac7 by deep mutational scanning” (BMC Biology, 2022).
# Test system: Escherichia coli TOP10
# Assay: shrunken log2 fold change of peptide-encoding DNA abundance (4.5 h post-induction vs induction); higher = less antimicrobial activity (less host growth inhibition)
# Conditions: time post-induction: 4.5 h; library: site-saturation at positions 5, 18, 19, 20
# 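Note: peptides expressed intracellularly from a pBAD plasmid library in pooled LB shake-flask culture, induced with 0.3% L-arabinose, DNA abundance read by NGS, three biological replicates, DESeq2 with apeglm shrinkage.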
row,Sequence,shrunken log2 fold change
1,RRIRYRPPRLPRPRPRPKLYPRP,-0.65
2,RRIRPRPPRLPRPRPRPLKQPRP,0.0902
3,RRIRQRPPRLPRPRPRPIFMPRP,-0.00126
4,RRIRPRPPRLPRPRPRPTRHPRP,0.43
5,RRIRYRPPRLPRPRPRPMHVPRP,0.214
6,RRIRCRPPRLPRPRPRPSFCPRP,-0.559
7,RRIRTRPPRLPRPRPRPLCFPRP,-0.326
8,RRIRDRPPRLPRPRPRPWIGPRP,0.0362
9,RRIRCRPPRLPRPRPRPYRPPRP,-0.352
10,RRIRKRPPRLPRPRPRPSWGPRP,0.00315
11,RRIRQRPPRLPRPRPRPIHPPRP,-0.0838
12,RRIRKRPPRLPRPRPRPRKWPRP,0.448
13,RRIRHRPPRLPRPRPRPITWPRP,-0.149
14,RRIRERPPRLPRPRPRPYWDPRP,-0.111
15,RRIRWRPPRLPRPRPRPPYMPRP,-0.16
16,RRIRRRPPRLPRPRPRPNETPRP,-0.0619
17,RRIRCRPPRLPRPRPRPFLVPRP,-0.511
18,RRIRGRPPRLPRPRPRPIYWPRP,0.247
19,RRIRHRPPRLPRPRPRPQVPPRP,0.0019
20,RRIRYRPPRLPRPRPRPGAMPRP,0.986
21,RRIRKRPPRLPRPRPRPLGFPRP,0.872
22,RRIRLRPPRLPRPRPRPKHRPRP,-0.112
23,RRIRYRPPRLPRPRPRPRYRPRP,-0.0551
24,RRIRPRPPRLPRPRPRPSLPPRP,-0.187
25,RRIRFRPPRLPRPRPRPNYMPRP,-0.254

row,Sequence,shrunken log2 fold change
1,RRIRFRPPRLPRPRPRPSPRPRP,0.426
2,RRIRSRPPRLPRPRPRPMSRPRP,0.0278
3,RRIRKRPPRLPRPRPRPLMKPRP,0.0125
4,RRIRLRPPRLPRPRPRPQKAPRP,0.000116
5,RRIRYRPPRLPRPRPRPHVTPRP,-0.147
6,RRIRWRPPRLPRPRPRPFNFPRP,-0.272
7,RRIRCRPPRLPRPRPRPPSKPRP,0.133
8,RRIRHRPPRLPRPRPRPNSDPRP,-0.0908
9,RRIRNRPPRLPRPRPRPDPPPRP,0.143
10,RRIRYRPPRLPRPRPRPHNPPRP,-1.15
11,RRIRLRPPRLPRPRPRPQHFPRP,-0.343
12,RRIRCRPPRLPRPRPRPYCKPRP,-0.894
13,RRIRWRPPRLPRPRPRPPGNPRP,0.687
14,RRIRIRPPRLPRPRPRPEIHPRP,-0.0126
15,RRIRTRPPRLPRPRPRPNTVPRP,-0.305
16,RRIRHRPPRLPRPRPRPPSMPRP,-0.343
17,RRIRKRPPRLPRPRPRPEQNPRP,0.949
18,RRIRCRPPRLPRPRPRPHLGPRP,-0.0785
19,RRIRHRPPRLPRPRPRPGWDPRP,0.18
20,RRIRGRPPRLPRPRPRPCERPRP,0.013
21,RRIRDRPPRLPRPRPRPIIEPRP,0.479
22,RRIRVRPPRLPRPRPRPHWHPRP,-0.0411
23,RRIRMRPPRLPRPRPRPHRNPRP,-0.181
24,RRIRCRPPRLPRPRPRPNPRPRP,0.378
25,RRIRLRPPRLPRPRPRPWVAPRP,0.29

row,Sequence,shrunken log2 fold change
1,RRIRLRPPRLPRPRPRPWPLPRP,-0.039
2,RRIRTRPPRLPRPRPRPRMIPRP,0.113
3,RRIRGRPPRLPRPRPRPTKAPRP,1.03
4,RRIRHRPPRLPRPRPRPMDIPRP,-0.00136
5,RRIRGRPPRLPRPRPRPEVYPRP,0.346
6,RRIRCRPPRLPRPRPRPYAAPRP,-0.269
7,RRIRMRPPRLPRPRPRPMHTPRP,3.3
8,RRIRTRPPRLPRPRPRPCPGPRP,-0.232
9,RRIRLRPPRLPRPRPRPRIIPRP,-1.12
10,RRIRRRPPRLPRPRPRPHPNPRP,0.246
11,RRIRRRPPRLPRPRPRPNHNPRP,-0.329
12,RRIRERPPRLPRPRPRPDFYPRP,-0.491
13,RRIRQRPPRLPRPRPRPAVAPRP,0.0726
14,RRIRMRPPRLPRPRPRPEELPRP,0.123
15,RRIRVRPPRLPRPRPRPAQRPRP,0.184
16,RRIRFRPPRLPRPRPRPEWPPRP,0.459
17,RRIRERPPRLPRPRPRPKNYPRP,-0.463
18,RRIRFRPPRLPRPRPRPAHMPRP,0.129
19,RRIRIRPPRLPRPRPRPNWYPRP,-0.519
20,RRIRGRPPRLPRPRPRPGWHPRP,0.277
21,RRIRWRPPRLPRPRPRPAQQPRP,-0.00145
22,RRIRHRPPRLPRPRPRPPEMPRP,0.484
23,RRIRHRPPRLPRPRPRPDNFPRP,-0.0184
24,RRIRERPPRLPRPRPRPHGHPRP,0.0257
25,RRIRNRPPRLPRPRPRPALEPRP,0.025

row,Sequence,shrunken log2 fold change
1,RRIRYRPPRLPRPRPRPRYVPRP,-0.0777
2,RRIRGRPPRLPRPRPRPFGSPRP,0.081
3,RRIRCRPPRLPRPRPRPYETPRP,0.023
4,RRIRNRPPRLPRPRPRPSHWPRP,-0.17
5,RRIRDRPPRLPRPRPRPPKYPRP,-0.47
6,RRIRKRPPRLPRPRPRPRWIPRP,0.112
7,RRIRPRPPRLPRPRPRPNCRPRP,-0.000174
8,RRIRGRPPRLPRPRPRPQFQPRP,0.0768
9,RRIRWRPPRLPRPRPRPDYKPRP,-0.0643
10,RRIRLRPPRLPRPRPRPWADPRP,-0.118
11,RRIRRRPPRLPRPRPRPHDAPRP,0.197
12,RRIRARPPRLPRPRPRPVYHPRP,-0.321
13,RRIRVRPPRLPRPRPRPRRCPRP,-0.0137
14,RRIRNRPPRLPRPRPRPKQKPRP,0.0568
15,RRIRIRPPRLPRPRPRPRVCPRP,0.00058
16,RRIRIRPPRLPRPRPRPCDFPRP,-0.834
17,RRIRVRPPRLPRPRPRPDYPPRP,-0.177
18,RRIRRRPPRLPRPRPRPFQLPRP,0.0918
19,RRIRVRPPRLPRPRPRPRSVPRP,0.0756
20,RRIRGRPPRLPRPRPRPPKWPRP,0.469
21,RRIRVRPPRLPRPRPRPTELPRP,0.324
22,RRIRGRPPRLPRPRPRPDTGPRP,-0.0756
23,RRIRPRPPRLPRPRPRPGMGPRP,0.149
24,RRIRCRPPRLPRPRPRPSMSPRP,-0.273
25,RRIRMRPPRLPRPRPRPKTHPRP,0.612

row,Sequence,shrunken log2 fold change
1,RRIRCRPPRLPRPRPRPNEAPRP,0.00978
2,RRIRKRPPRLPRPRPRPGKEPRP,0.266
3,RRIRDRPPRLPRPRPRPNQDPRP,0.000998
4,RRIRCRPPRLPRPRPRPANPPRP,-0.057
5,RRIRARPPRLPRPRPRPWEDPRP,-0.015
6,RRIRFRPPRLPRPRPRPWPKPRP,0.125
7,RRIRIRPPRLPRPRPRPGDPPRP,-0.0811
8,RRIRWRPPRLPRPRPRPPERPRP,0.816
9,RRIRRRPPRLPRPRPRPTWFPRP,0.0478
10,RRIRTRPPRLPRPRPRPDVQPRP,0.0493
11,RRIRFRPPRLPRPRPRPFRWPRP,0.178
12,RRIRHRPPRLPRPRPRPPPLPRP,0.651
13,RRIRWRPPRLPRPRPRPMMLPRP,0.309
14,RRIRIRPPRLPRPRPRPVMGPRP,-0.718
15,RRIRGRPPRLPRPRPRPRQLPRP,0.549
16,RRIRARPPRLPRPRPRPNHYPRP,-0.456
17,RRIRQRPPRLPRPRPRPCVIPRP,-0.409
18,RRIRNRPPRLPRPRPRPVLVPRP,-0.211
19,RRIRNRPPRLPRPRPRPHDNPRP,-0.511
20,RRIRERPPRLPRPRPRPKTWPRP,-0.104
21,RRIRERPPRLPRPRPRPFVMPRP,-0.345
22,RRIRKRPPRLPRPRPRPNIQPRP,-0.0271
23,RRIRWRPPRLPRPRPRPVPFPRP,0.122
24,RRIRCRPPRLPRPRPRPKLFPRP,0.132
25,RRIRRRPPRLPRPRPRPPQRPRP,1.64

row,Sequence,shrunken log2 fold change
1,RRIRNRPPRLPRPRPRPGMVPRP,-0.23
2,RRIRVRPPRLPRPRPRPIGVPRP,-0.01
3,RRIRVRPPRLPRPRPRPEPPPRP,0.664
4,RRIRSRPPRLPRPRPRPYIIPRP,-0.502
5,RRIRSRPPRLPRPRPRPQRQPRP,0.116
6,RRIRMRPPRLPRPRPRPEMFPRP,2.24
7,RRIRSRPPRLPRPRPRPVFVPRP,-0.00419
8,RRIRFRPPRLPRPRPRPIFCPRP,-0.155
9,RRIRVRPPRLPRPRPRPWRKPRP,0.0283
10,RRIRMRPPRLPRPRPRPDGTPRP,2.88
11,RRIRVRPPRLPRPRPRPYLCPRP,0.0235
12,RRIRWRPPRLPRPRPRPSCGPRP,0.0847
13,RRIRLRPPRLPRPRPRPLIDPRP,-0.258
14,RRIRRRPPRLPRPRPRPGFDPRP,0.289
15,RRIRRRPPRLPRPRPRPLPWPRP,0.057
16,RRIRGRPPRLPRPRPRPSRPPRP,0.624
17,RRIRCRPPRLPRPRPRPHPQPRP,0.266
18,RRIRARPPRLPRPRPRPNFPPRP,-0.0362
19,RRIRKRPPRLPRPRPRPWRMPRP,0.0773
20,RRIRFRPPRLPRPRPRPASIPRP,-0.231
21,RRIRHRPPRLPRPRPRPPKYPRP,-0.349
22,RRIRSRPPRLPRPRPRPDHHPRP,-0.868
23,RRIRWRPPRLPRPRPRPEVAPRP,1.25
24,RRIRARPPRLPRPRPRPEQVPRP,0.453
25,RRIRERPPRLPRPRPRPEPKPRP,0.0877
